Ends that are not written are not given here. * marks the point of attachment. C16 diacid = O=C(O)CCCCCCCCCCCCCCC(=O)*
T1: human GIP receptor (human, UniProt P48546 22-466)
T1 sequence (looked up): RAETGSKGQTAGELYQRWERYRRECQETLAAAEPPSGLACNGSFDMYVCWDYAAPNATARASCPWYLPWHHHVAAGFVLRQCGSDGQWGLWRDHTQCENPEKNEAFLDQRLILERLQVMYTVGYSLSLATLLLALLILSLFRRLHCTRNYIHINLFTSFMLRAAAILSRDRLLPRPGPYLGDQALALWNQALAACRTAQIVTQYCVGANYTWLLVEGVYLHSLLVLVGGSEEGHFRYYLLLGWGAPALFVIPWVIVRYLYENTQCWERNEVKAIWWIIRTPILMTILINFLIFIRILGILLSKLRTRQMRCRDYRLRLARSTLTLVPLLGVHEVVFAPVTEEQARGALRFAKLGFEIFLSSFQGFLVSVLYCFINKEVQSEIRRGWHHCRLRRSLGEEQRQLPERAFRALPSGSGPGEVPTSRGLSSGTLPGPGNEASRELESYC

B1: AT177 [hGIP(5-30)NH2[D15K]-C16diacid/15] (peptide)
peptide: TFISDYSIAMK(C16 diacid)KIHQQDFVNWLLAQK-NH2
modifications: N-terminus assumed
SMILES: CC[C@H](C)[C@H](NC(=O)[C@H](CO)NC(=O)[C@H](Cc1ccc(O)cc1)NC(=O)[C@H](CC(=O)O)NC(=O)[C@H](CO)NC(=O)[C@@H](NC(=O)[C@H](Cc1ccccc1)NC(=O)[C@@H](N)[C@@H](C)O)[C@@H](C)CC)C(=O)N[C@@H](C)C(=O)N[C@@H](CCSC)C(=O)N[C@@H](CCCCNC(=O)CCCCCCCCCCCCCCC(=O)O)C(=O)N[C@@H](CCCCN)C(=O)N[C@H](C(=O)N[C@@H](Cc1c[nH]cn1)C(=O)N[C@@H](CCC(N)=O)C(=O)N[C@@H](CCC(N)=O)C(=O)N[C@@H](CC(=O)O)C(=O)N[C@@H](Cc1ccccc1)C(=O)N[C@H](C(=O)N[C@@H](CC(N)=O)C(=O)N[C@@H](Cc1c[nH]c2ccccc12)C(=O)N[C@@H](CC(C)C)C(=O)N[C@@H](CC(C)C)C(=O)N[C@@H](C)C(=O)N[C@@H](CCC(N)=O)C(=O)N[C@@H](CCCCN)C(N)=O)C(C)C)[C@@H](C)CC
B2: AT179 [hGIP(5-30)NH2[Q19K]-C16diacid/19] (peptide)
peptide: TFISDYSIAMDKIHK(C16 diacid)QDFVNWLLAQK-NH2
modifications: N-terminus assumed
SMILES: CC[C@H](C)[C@H](NC(=O)[C@H](CO)NC(=O)[C@H](Cc1ccc(O)cc1)NC(=O)[C@H](CC(=O)O)NC(=O)[C@H](CO)NC(=O)[C@@H](NC(=O)[C@H](Cc1ccccc1)NC(=O)[C@@H](N)[C@@H](C)O)[C@@H](C)CC)C(=O)N[C@@H](C)C(=O)N[C@@H](CCSC)C(=O)N[C@@H](CC(=O)O)C(=O)N[C@@H](CCCCN)C(=O)N[C@H](C(=O)N[C@@H](Cc1c[nH]cn1)C(=O)N[C@@H](CCCCNC(=O)CCCCCCCCCCCCCCC(=O)O)C(=O)N[C@@H](CCC(N)=O)C(=O)N[C@@H](CC(=O)O)C(=O)N[C@@H](Cc1ccccc1)C(=O)N[C@H](C(=O)N[C@@H](CC(N)=O)C(=O)N[C@@H](Cc1c[nH]c2ccccc12)C(=O)N[C@@H](CC(C)C)C(=O)N[C@@H](CC(C)C)C(=O)N[C@@H](C)C(=O)N[C@@H](CCC(N)=O)C(=O)N[C@@H](CCCCN)C(N)=O)C(C)C)[C@@H](C)CC
B3: AT178 [hGIP(5-30)NH2[I17K]-C16diacid/17] (peptide)
peptide: TFISDYSIAMDKK(C16 diacid)HQQDFVNWLLAQK-NH2
modifications: N-terminus assumed
SMILES: CC[C@H](C)[C@H](NC(=O)[C@H](CO)NC(=O)[C@H](Cc1ccc(O)cc1)NC(=O)[C@H](CC(=O)O)NC(=O)[C@H](CO)NC(=O)[C@@H](NC(=O)[C@H](Cc1ccccc1)NC(=O)[C@@H](N)[C@@H](C)O)[C@@H](C)CC)C(=O)N[C@@H](C)C(=O)N[C@@H](CCSC)C(=O)N[C@@H](CC(=O)O)C(=O)N[C@@H](CCCCN)C(=O)N[C@@H](CCCCNC(=O)CCCCCCCCCCCCCCC(=O)O)C(=O)N[C@@H](Cc1c[nH]cn1)C(=O)N[C@@H](CCC(N)=O)C(=O)N[C@@H](CCC(N)=O)C(=O)N[C@@H](CC(=O)O)C(=O)N[C@@H](Cc1ccccc1)C(=O)N[C@H](C(=O)N[C@@H](CC(N)=O)C(=O)N[C@@H](Cc1c[nH]c2ccccc12)C(=O)N[C@@H](CC(C)C)C(=O)N[C@@H](CC(C)C)C(=O)N[C@@H](C)C(=O)N[C@@H](CCC(N)=O)C(=O)N[C@@H](CCCCN)C(N)=O)C(C)C
B4: AT180 [hGIP(5-30)NH2[Q20K]-C16diacid/20] (peptide)
peptide: TFISDYSIAMDKIHQK(C16 diacid)DFVNWLLAQK-NH2
modifications: N-terminus assumed
SMILES: CC[C@H](C)[C@H](NC(=O)[C@H](CO)NC(=O)[C@H](Cc1ccc(O)cc1)NC(=O)[C@H](CC(=O)O)NC(=O)[C@H](CO)NC(=O)[C@@H](NC(=O)[C@H](Cc1ccccc1)NC(=O)[C@@H](N)[C@@H](C)O)[C@@H](C)CC)C(=O)N[C@@H](C)C(=O)N[C@@H](CCSC)C(=O)N[C@@H](CC(=O)O)C(=O)N[C@@H](CCCCN)C(=O)N[C@H](C(=O)N[C@@H](Cc1c[nH]cn1)C(=O)N[C@@H](CCC(N)=O)C(=O)N[C@@H](CCCCNC(=O)CCCCCCCCCCCCCCC(=O)O)C(=O)N[C@@H](CC(=O)O)C(=O)N[C@@H](Cc1ccccc1)C(=O)N[C@H](C(=O)N[C@@H](CC(N)=O)C(=O)N[C@@H](Cc1c[nH]c2ccccc12)C(=O)N[C@@H](CC(C)C)C(=O)N[C@@H](CC(C)C)C(=O)N[C@@H](C)C(=O)N[C@@H](CCC(N)=O)C(=O)N[C@@H](CCCCN)C(N)=O)C(C)C)[C@@H](C)CC
B5: AT181 [hGIP(5-30)NH2[D21K]-C16diacid/21] (peptide)
peptide: TFISDYSIAMDKIHQQK(C16 diacid)FVNWLLAQK-NH2
modifications: N-terminus assumed
SMILES: CC[C@H](C)[C@H](NC(=O)[C@H](CO)NC(=O)[C@H](Cc1ccc(O)cc1)NC(=O)[C@H](CC(=O)O)NC(=O)[C@H](CO)NC(=O)[C@@H](NC(=O)[C@H](Cc1ccccc1)NC(=O)[C@@H](N)[C@@H](C)O)[C@@H](C)CC)C(=O)N[C@@H](C)C(=O)N[C@@H](CCSC)C(=O)N[C@@H](CC(=O)O)C(=O)N[C@@H](CCCCN)C(=O)N[C@H](C(=O)N[C@@H](Cc1c[nH]cn1)C(=O)N[C@@H](CCC(N)=O)C(=O)N[C@@H](CCC(N)=O)C(=O)N[C@@H](CCCCNC(=O)CCCCCCCCCCCCCCC(=O)O)C(=O)N[C@@H](Cc1ccccc1)C(=O)N[C@H](C(=O)N[C@@H](CC(N)=O)C(=O)N[C@@H](Cc1c[nH]c2ccccc12)C(=O)N[C@@H](CC(C)C)C(=O)N[C@@H](CC(C)C)C(=O)N[C@@H](C)C(=O)N[C@@H](CCC(N)=O)C(=O)N[C@@H](CCCCN)C(N)=O)C(C)C)[C@@H](C)CC

How the values were obtained:
human GIP receptor [1] = biological target: T1, human GIP receptor; test: cell-based or functional assay
human GIP receptor [2] = biological target: T1, human GIP receptor; test: IC50 with 2% HSA over IC50 with 0.1% casein, 125I-hGIP competition, COS-7/hGIPR
Experimental: (§1) After incubation, the cells were washed twice in ice-cold binding buffer (+/−2% HSA) and lysed using 200 mM NaOH with 1% SDS for 30 min. Nonspecific binding was determined as the binding of radioactive ligand to untransfected cells.

human GIP receptor [3] = biological target: T1, human GIP receptor; test: 125I-hGIP competition binding, COS-7/hGIPR, 2% HSA;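 further: nonspecific binding defined as radioligand binding to untransfected cells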
Experimental: as §1

human GIP receptor [4] = biological target: T1, human GIP receptor; test: 125I-hGIP competition binding, COS-7 cells expressing hGIPR;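 further: nonspecific binding taken as radioligand bound by untransfected cells, binding buffer with or without 2% HSA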
Experimental: as §1

human GIP receptor [5] = biological target: T1, human GIP receptor; test: 125I-hGIP competition binding, COS-7/hGIPR, 0.1% casein;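 further: nonspecific binding defined as radioligand binding measured on untransfected cells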
Experimental: as §1

Binder	cAMP agonism (human GIP receptor [1])	cAMP agonism, EC50 (log) (human GIP receptor [1])	cAMP agonism, Emax (human GIP receptor [1])	cAMP antagonism (human GIP receptor [1])	cAMP antagonism, log (human GIP receptor [1])	Fold change HSA (2%)/Casein (0.1%) (human GIP receptor [2])	IC50 (human GIP receptor [3])	logIC50 (human GIP receptor [3])	IC50 (human GIP receptor [4])	log IC50 (human GIP receptor [4])	IC50 (human GIP receptor [5])	logIC50 (human GIP receptor [5])
B1	59 nM	-7 log M	30	59 nM	-7.2 log M	3.8 fold	513 nM	-6.29 log M	134 nM	-6.9 log M	135 nM	-6.87 log M
B2	89 nM	-7 log M	32	89 nM	-7.1 log M	3.6 fold	38 nM	-7.42 log M	453 nM	-6.3 log M	10.5 nM	-7.98 log M
B3			0	33 nM	-7.5 log M	3 fold	195 nM	-6.7 log M	66 nM	-7.2 log M	66.1 nM	-7.2 log M
B4			0	37 nM	-7.4 log M	3.7 fold	1700 nM	-5.8 log M	106 nM	-7 log M	457 nM	-6.3 log M
B5	2 nM	-9 log M	9	16 nM	-7.8 log M	5.2 fold	550 nM	-6.3 log M	48 nM	-7.3 log M	105 nM	-7 log M

Reference: patent publication US20200087373A1 (UNIVERSITY OF COPENHAGEN, published 2020)
